# Tests used:
# MS2 coat protein = assay: apparent KD of MS2 coat protein; higher = weaker reporter binding; conditions: Eterna round: R107
# Description: (§1)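 RNA-MaP round R107: designed RNA switches with theophylline, tryptophan, arginine or FMN aptamers are transcribed on-chip within common flanks. They are titrated with SNAP-549-labelled MS2 coat protein in RNA-MaP buffer (100 mM Tris pH 7.5, 80 mM KCl, 4 mM MgCl2), without ligand or with the indicated ligand. Median apparent KD per design.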
# [1] = test system: K4 kissing-loop RNA reporter; assay: apparent KD of K4 kissing-loop reporter; higher = weaker reporter binding; conditions: Eterna round: R107;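 also: bound reporter read as fluorescence of individual clusters on recovered sequencing chips by microscopy, with normalized cluster intensities fitted with a binding model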
# Description: as §1, with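 “a labelled K4 kissing-loop RNA reporter” for “SNAP-549-labelled MS2 coat protein”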
# [2] = input ligand: theophylline 20 uM
# [3] = input ligand: theophylline 2 mM
# [4] = input ligand: tryptophan 2.4 mM
Sequence,apparent KD of MS2 coat protein (MS2 coat protein; input ligand: arginine 13.2 mM),apparent KD of MS2 coat protein (MS2 coat protein; input ligand: none),apparent KD of MS2 coat protein (MS2 coat protein; [2]),apparent KD of MS2 coat protein (MS2 coat protein; [3]),apparent KD of MS2 coat protein (MS2 coat protein; [4]),apparent KD of K4 kissing-loop reporter ([1]; input ligand: FMN 200 uM),apparent KD of K4 kissing-loop reporter ([1]; input ligand: arginine 13.2 mM),apparent KD of K4 kissing-loop reporter ([1]; input ligand: none),"apparent KD of K4 kissing-loop reporter [1, 2]","apparent KD of K4 kissing-loop reporter [1, 4]"
UACCGAUGAAGAAGGAGCGUACGUGGUUCACAUGAGGAUCACCCAUGUGCUUAUUGCUAGGUACAGGUAGGUCGCUUCAUCGGUA [SSAB NP+V+V2 #21],16.5 nM,15.5 nM,21 nM,17.1 nM,15.8 nM,,,,,
UCUACAUGAGGAUCACCCAUGUGCCAUGAUACCAGACAUGAAAAUGUCCCUUGGCAGCGUGGGUAGCGCAUCCGAAAGGAUGCGC [#08 SameState-TheophyllineA],1370 nM,702 nM,240 nM,1310 nM,20.5 nM,,,,,
GAGCUGAUGUAGAAAUUUUAUUUCUGAGAUACCAGUACAGAAAUGUACCCUUGGCAGCUCAGUUUUACAUGAGGAUCACCCAUGU [Ex Theophylline A 15],14.8 nM,,15.6 nM,,13.1 nM,,,,,
AUAACACAUGAGGAUCACCCAUGUAAGGAUACCAGUUUCUGAUUAAACCCUUGGCAGCCUAGAGAUAGUCAUGUAAUAACGGCGA [theeternabot_sameState_MS2_Theo_A_19],12.4 nM,,18.1 nM,,12.2 nM,,,,,
UUCAGCUAGUCGGCCGCCACUACAUGAGCAUCAGCCAUGUUCCUAAAACACUGCUUCGGCAGUGGUAGGACCGGGACUAGCUGAG,10.4 nM,11 nM,12 nM,12.6 nM,25.9 nM,,,,,
GUGGCGAUCACGGCCGCCACUGAGCAGGUCGAGCUUGACAUGAGGAUCACCCAUGUCUGACGAUACAGGACCGGGUGAUCUCCGC [Titiinanon],16.5 nM,21.7 nM,94.6 nM,149 nM,19.7 nM,,,,,
ACAUGAAGAACAGCGGUGGGCGCGCUCGAUACCAGUAUUUUAAACUACCCUUGGCAGCGACAUGAGGAUCACCCAUGUGAGAUGA [XTheo A #6],16.9 nM,,21.8 nM,,19.5 nM,,,,,
GGAUGAAACUGAAGGAGCGAGAUCACAAGAAUGGGUCAAACAUGAGGAUCACCCAUGUAAUCUCAGGUAGGUCGCAGUGUCCCUU [Exclusion Arginine B GF 11],40.1 nM,40.4 nM,80.5 nM,55.1 nM,46.2 nM,,,,,
AGUUGACAAAAGUCAGCAACAUGAUCCGAAGGAGCGGGCGAAAGCCCAGGUAGGUCGCGGACAUGAGGAUCACCCAUGUCUCCUU [ArgAX 3 #OpenEnded #Sliding],46.6 nM,74.3 nM,70.6 nM,100 nM,63.9 nM,,,,,
AGCAUACAUUCUGAUACCAGAGACAUGAGGAUCACCCAUGUCCGAUCGUCCUGCCUCAGACUCCCUUGGCAGCAGGAUGUGUGCU [Exclusion Theophylline B GF6],13.1 nM,,17.6 nM,,13.8 nM,,,,,
GGGCGCUAUCCCGCGAGGGAUAGCGUUCGUCGAGGACCGGUACGGCCGCCACUCGAACGAGUGGUGACAUGAGGAUCACCCAUGU [Oaa],39 nM,,55.2 nM,55.7 nM,,,,,,
AUAUAUACAUGAGGAUCACCCAUGUUAUUUCGAGGACCGGUACGGCCGCCACUCGAUAGAGUAGAAGUAUUUUGGGAUAGUUGAU [JR_SSTryptoA_Sub015],19.7 nM,18.5 nM,30.7 nM,23.6 nM,15.6 nM,,,,,
AACAGGGUCUGAAGGAGCGCGAUCACAUGAGGAUCACCCAUGUGAAAUGGUAGAUGAUACUCGCAGGUAGGUCGCAGUACUUGAC [Same State Arginine B GF 15],54.2 nM,33.6 nM,127 nM,82.4 nM,28.4 nM,,,,,
AGAGUCAGACAAAAGUCUGGCUCAGCCGAAGGAGCGUCCGAAAGGACAGGUAGGUCGCGGUUACAUGAGGAUCACCCAUGUUCCU [ArgAS 7 #OpenEnded],66.8 nM,136 nM,177 nM,184 nM,145 nM,,,,,
"GCGUACGAUCGGGAUACCAGACAUUGCCGUUAGGGUGAACUUGAGGAUCACCCAAGUUUUGUCCCUUGGCAGCCCGAUCGUACGC [ETB NP+V+V2 #9 Diff Apt, Same Structure]",9.92 nM,10 nM,19.4 nM,220 nM,10.4 nM,,,,,
AGCACUGUGACGGCCGCCACUACAUAAUAGGGUGGUCAGGUUCAUAUACAUGAGGAUCACCCAUGUAGGACCGGGUCUCAGUGCA [Omei Trp Exc B A v6],8.68 nM,10.6 nM,12.7 nM,12.2 nM,9.03 nM,,,,,
UGUGCCAACAGUGAUACCAGCGUGGAGUGAUGUUCCGAGGAUCGGAGUGAUGUUCCGAAGCGCCCUUGGCAGCGCAGAAGCGCGA [Exclusion Theophylline B GF 26],,,,,,239 nM,156 nM,186 nM,189 nM,182 nM
CGUUUAUAGCAGGAUACCAGUACCCAUAAAGUACGUUAAUAGUAGAGUGAUGUUCUGAAGUACCCUUGGCAGCUUCCGGUAAGUG [#25 K4 Theophylline B Exclusion],,,,,,163 nM,342 nM,239 nM,298 nM,134 nM
GCGGGCCAGACGGCCGCCACUCCGGGCAGUGAUGUUGCGAAAAUUCUACUAGAGUGAUGUUCUACGAGGACCGGGUCGGAACGCG [Exclusion Tryptophan B Gf 12],,,,,,370 nM,476 nM,538 nM,495 nM,257 nM
AAAUUGUUUAGAGGAUAUUCUUUAUUCGACAUAACCUUCUAUAAGGUGCAGUGAUGUUGCAAUAUAGGAGAAGGUUGAGUGAUAA [Exclusion FMN B Gf 15],,,,,,135 nM,118 nM,136 nM,121 nM,113 nM

# — the supplement of paper PMC9170038
